This note sets out measurements from IntAct's records for PubMed 21572435.

Sequences and labels used below:
B1: ETS translocation variant 1 (Homo sapiens), P50549-1 (parent)
chain: MDGFYDQQVPYMVTNSQRGRNCNEKPTNVRKRKFINRDLAHDSEELFQDLSQLQETWLAEAQVPDNDEQFVPDYQAESLAFHGLPLKIKKEPHSPCSEISSACSQEQPFKFSYGEKCLYNVSAYDQKPQVGMRPSNPPTPSSTPVSPLHHASPNSTHTPKPDRAFPAHLPPSQSIPDSSYPMDHRFRRQLSEPCNSFPPLPTMPREGRPMYQRQMSEPNIPFPPQGFKQEYHDPVYEHNTMVGSAASQSFPPPLMIKQEPRDFAYDSEVPSCHSIYMRQEGFLAHPSRTEGCMFEKGPRQFYDDTCVVPEKFDGDIKQEPGMYREGPTYQRRGSLQLWQFLVALLDDPSNSHFIAWTGRGMEFKLIEPEEVARRWGIQKNRPAMNYDKLSRSLRYYYEKGIMQKVAGERYVYKFVCDPEALFSMAFPDNQRPLLKTDMERHINEEDTVPLSHFDESMAYMPEGGCCNPHPYNEGYVY

In this experiment the parent is B1. The settings on record: with COP1, Q8NHY2-1.
Chain of COP1, Q8NHY2-1 (Q8NHY2 whole entry): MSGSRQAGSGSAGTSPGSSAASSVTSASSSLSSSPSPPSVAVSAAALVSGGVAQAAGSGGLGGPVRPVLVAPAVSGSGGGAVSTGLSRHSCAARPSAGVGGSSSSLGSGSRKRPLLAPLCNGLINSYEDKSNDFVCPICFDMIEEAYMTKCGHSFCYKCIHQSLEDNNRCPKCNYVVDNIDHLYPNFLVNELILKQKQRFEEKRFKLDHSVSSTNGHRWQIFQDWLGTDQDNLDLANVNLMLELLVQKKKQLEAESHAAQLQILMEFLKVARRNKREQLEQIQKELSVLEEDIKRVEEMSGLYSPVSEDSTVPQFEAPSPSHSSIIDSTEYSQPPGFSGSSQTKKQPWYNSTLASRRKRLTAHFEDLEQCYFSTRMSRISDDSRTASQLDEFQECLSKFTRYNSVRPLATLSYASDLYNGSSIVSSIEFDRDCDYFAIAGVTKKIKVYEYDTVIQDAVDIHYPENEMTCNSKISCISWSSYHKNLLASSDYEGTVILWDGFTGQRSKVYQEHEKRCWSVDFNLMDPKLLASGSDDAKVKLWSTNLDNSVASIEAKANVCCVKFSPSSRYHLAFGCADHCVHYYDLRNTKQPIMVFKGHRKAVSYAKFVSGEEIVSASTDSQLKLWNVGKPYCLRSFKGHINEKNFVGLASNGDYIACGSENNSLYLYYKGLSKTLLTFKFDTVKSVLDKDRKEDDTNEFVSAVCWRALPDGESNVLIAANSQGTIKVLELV
As to V71A;P72A, the “effect of a mutation on the interaction” value is listed as “decreasing interaction”. The result for V63A;P64A;V71A;P72A reads “decreasing interaction”.
